Measured values published in IntAct's records for PubMed 16782870.

B1: Proliferating cell nuclear antigen (Saccharomyces cerevisiae), P15873 (parent)
chain: MLEAKFEEASLFKRIIDGFKDCVQLVNFQCKEDGIIAQAVDDSRVLLVSLEIGVEAFQEYRCDHPVTLGMDLTSLSKILRCGNNTDTLTLIADNTPDSIILLFEDTKKDRIAEYSLKLMDIDADFLKIEELQYDSTLSLPSSEFSKIVRDLSQLSDSINIMITKETIKFVADGDIGSGSVIIKPFVDMEHPETSIKLEMDQPVDLTFGAKYLLDIIKGSSLSDRVGIRLSSEAPALFQFDLKSGFLQFFLAPKFNDEE
partner: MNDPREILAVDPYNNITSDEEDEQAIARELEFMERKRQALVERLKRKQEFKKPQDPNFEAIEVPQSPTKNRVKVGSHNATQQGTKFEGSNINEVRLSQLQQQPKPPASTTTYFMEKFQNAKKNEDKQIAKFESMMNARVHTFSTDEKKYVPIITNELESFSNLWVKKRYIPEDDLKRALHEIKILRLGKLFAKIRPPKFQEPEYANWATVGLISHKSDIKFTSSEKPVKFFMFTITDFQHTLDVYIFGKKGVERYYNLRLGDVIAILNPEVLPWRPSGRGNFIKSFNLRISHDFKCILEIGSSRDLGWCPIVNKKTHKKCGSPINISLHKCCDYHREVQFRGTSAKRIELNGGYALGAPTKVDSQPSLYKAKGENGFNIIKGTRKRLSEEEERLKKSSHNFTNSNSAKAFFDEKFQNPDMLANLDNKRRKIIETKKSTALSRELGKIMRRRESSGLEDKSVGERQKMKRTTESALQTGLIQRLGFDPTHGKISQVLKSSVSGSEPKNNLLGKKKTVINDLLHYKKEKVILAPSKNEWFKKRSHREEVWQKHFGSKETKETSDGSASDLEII
B2: Proliferating cell nuclear antigen (Saccharomyces cerevisiae), P15873 (parent)
chain: B1 chain
B3: Minichromosome maintenance protein 10 (Saccharomyces cerevisiae), P32354 (parent)
chain: B1 partner

Variants of: B1
Conditions: with mcm10_yeast MCM10, P32354

| Variant | effect of a mutation on the interaction |
| --- | --- |
| A251V | disrupting interaction |
| Y133A | decreasing interaction |

Variants of: B2
Conditions: with dpod3_yeast POL32, P47110
Chain of dpod3_yeast POL32, P47110 (P47110 whole entry): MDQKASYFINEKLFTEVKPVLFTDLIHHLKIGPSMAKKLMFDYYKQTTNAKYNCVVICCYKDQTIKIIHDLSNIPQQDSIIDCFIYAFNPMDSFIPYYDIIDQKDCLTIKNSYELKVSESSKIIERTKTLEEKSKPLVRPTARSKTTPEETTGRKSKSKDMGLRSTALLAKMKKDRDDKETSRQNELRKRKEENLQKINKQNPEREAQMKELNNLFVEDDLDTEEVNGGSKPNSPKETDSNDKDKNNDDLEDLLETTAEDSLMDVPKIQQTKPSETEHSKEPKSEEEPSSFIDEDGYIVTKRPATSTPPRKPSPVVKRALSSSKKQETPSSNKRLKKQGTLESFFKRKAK

| Variant | effect of a mutation on the interaction |
| --- | --- |
| A251V | decreasing interaction |
| Y133A | decreasing interaction |
| Y133L | decreasing interaction |

Variants of: B3
Conditions: with pcna_yeast POL30, P15873

| Variant | effect of a mutation on the interaction |
| --- | --- |
| L242Y | decreasing interaction |
| L242A | disrupting interaction |
| Y245A | disrupting interaction |
